In the supplement of paper PMC9170038:

Legend:
MS2 coat protein = assay: apparent KD of MS2 coat protein; higher = weaker reporter binding; conditions: Eterna round: R107
Protocol: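 RNA-MaP round R107: designed RNA switches with theophylline, tryptophan, arginine or FMN aptamers are transcribed on-chip within common flanks. They are titrated with SNAP-549-labelled MS2 coat protein in RNA-MaP buffer (100 mM Tris pH 7.5, 80 mM KCl, 4 mM MgCl2), without ligand or with the indicated ligand. Median apparent KD per design.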

[1] = system: K4 kissing-loop RNA reporter; assay: apparent KD of K4 kissing-loop reporter; higher = weaker reporter binding; conditions: Eterna round: R107;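 also: bound reporter read as fluorescence of individual clusters on recovered sequencing chips by microscopy, with normalized cluster intensities fitted with a binding model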
Protocol: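 RNA-MaP round R107: designed RNA switches with theophylline, tryptophan, arginine or FMN aptamers are transcribed on-chip within common flanks. They are titrated with a labelled K4 kissing-loop RNA reporter in RNA-MaP buffer (100 mM Tris pH 7.5, 80 mM KCl, 4 mM MgCl2), without ligand or with the indicated ligand. Median apparent KD per design.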

[2] = input ligand: theophylline 20 uM
[3] = input ligand: theophylline 2 mM
[4] = input ligand: tryptophan 2.4 mM

Row | Sequence | apparent KD of MS2 coat protein (MS2 coat protein; input ligand: arginine 13.2 mM) [nM] | apparent KD of MS2 coat protein (MS2 coat protein; input ligand: none) [nM] | apparent KD of MS2 coat protein (MS2 coat protein; [2]) [nM] | apparent KD of MS2 coat protein (MS2 coat protein; [3]) [nM] | apparent KD of MS2 coat protein (MS2 coat protein; [4]) [nM] | apparent KD of K4 kissing-loop reporter ([1]; input ligand: FMN 200 uM) [nM] | apparent KD of K4 kissing-loop reporter ([1]; input ligand: arginine 13.2 mM) [nM] | apparent KD of K4 kissing-loop reporter ([1]; input ligand: none) [nM] | apparent KD of K4 kissing-loop reporter [1, 2] [nM] | apparent KD of K4 kissing-loop reporter [1, 4] [nM]
1 | AAAAGUAGGUCCAAUAAAACUACAUGUGAAGGAGCGCCCGAAAGGGCAGGUAGGUCGCACAUGAGGAUCACCCAUGUCCUACAAA [ArgEX 7 #OpenEnded] | 50.1 | 86.1 | 103 | 86.1 | 71.8 |  |  |  |  | 
2 | AAAAUCCUACCUGAGGAUCACCCAGGUGAAGGAGCGCCCGAAAGGGCAGGUAGGUCGCACCUGAGGAUCACCCUGGUAAACCUAA [ArgEX 22 #DoubleMS2 #OpenEnded] | 30.9 | 44 | 47.6 | 56.8 | 40.6 |  |  |  |  | 
3 | AAAGCCACUUCGGCCGCCACUACAACAUGAGGAUCACCCAUGUACCUCGUGUACGGUCCGAGGAGUAGGACCGGGAAGUGGUGGA [(T1'')-(Trp1)-(Ms2)-(M')-(T2')-(M'')-(Trp2)-(T1')] | 94 |  | 193 | 175 |  |  |  |  |  | 
4 | AAAUAAAUAACUGAUACCAGUGGACUGACAUGAGGAUCACCCAUGUUGGGUUUUGUUGUCCACCCUUGGCAGCAGGGAUAUAAAA [#24 Exclusion-TheophyllineB] | 24.4 | 38.5 | 54.7 | 70.9 | 43.4 |  |  |  |  | 
5 | AAAUAAAUACAUGAGGAUCACCCAUGUGAAGGAGCGCGCGUUAGCGCAGGUAGGUCGCACAUGAAUAACUCCGCGCGAAAGCGCA [MAT - Exclusion Arginine A - Mod of Eli - D11] | 11.8 | 17.4 | 23.7 | 19.6 | 16.4 |  |  |  |  | 
6 | AAAUAAAUACAUGAGGAUCACCCAUGUGAAGGAGCGGCCGUUAGGCCAGGUAGGUCGCGCAUGAAUAACUCCGUGCAUAAGCACA [MAT - Exclusion Arginine A - Mod of Eli - D18] | 10.6 | 11.1 | 16.6 | 12.2 | 12.3 |  |  |  |  | 
7 | AACAUGAGGAUCACCCAUGUACCUUUCGAUCGAGGACCGGUACGGCCGCCACUCGAAAACAUGAGGAUCACCCAUGUUCAACAGG [Tryp A SS t3] | 58.7 |  | 128 | 154 |  |  |  |  |  | 
8 | AACAUGAGGAUCACCCAUGUGUCCUCGAAACGAGGACCGGUACGGCCGCCACUCGAGCUAUGUUGACGAAAAGUCAGCAUAGCAA [Mat - Exclusion - Trytophan A - D13] | 123 | 276 | 316 | 374 | 1080 |  |  |  |  | 
9 | AACCGAGGCUAUCCUCUAAGAAUAUGUGAUACCAGAAUAAUUUUAUUCCCUUGGCAGCAUGACAUGAGGAUCACCCAUGUGUCUU [SSTheo A #7] | 70 |  | 136 |  | 136 |  |  |  |  | 
10 | AACGUAUACAGAAGGAGCGUGAUUUAUUAUUCUUUAAGAUAUACAUGAGGAUCACCCAUGUCACAGGUAGGUCGCUGUAUUCGUA [JR_ExcArginiB_Sub025] | 31 | 34.3 | 42.3 | 36.7 | 34.6 |  |  |  |  | 
11 | AACGUAUACAGAAGGAGCGUGAUUUGUGUUACUCAUUCAUAUACAUGAGGAUCACCCAUGUCACAGGUAGGUCGCUGUAUUCGUA [JR_ExcArginiB_Sub022] | 39.8 | 166 | 128 | 87.1 | 53.8 |  |  |  |  | 
12 | AACUACUCGAGGUGAUCCUACGAGUGGCAACGAGGACCGGUACGGCCGCCACUCGAAUAAACAUGAGGAUCACCCAUGUACAAAU [T''-M'-T'-T-MS2 - Design 12] | 92.2 |  | 259 | 220 |  |  |  |  |  | 
13 | UUUUUGGAGAAUUAUAGUGAUGUUAUGAAGGAGGAUAUCUAAAGAUGGAGAAGGUUUAAUAGUUAAGGGAUGGAGGGUGGGUGGG [ExFMNA.Q] |  |  |  |  |  | 372 | 180 | 320 | 208 | 229
14 | UUUUUUAAGAUAUUGACCAACCCGAAGCUACGAGGACCGGUACGGCCGCCACUCGCCAGUGAUGUUGGCGACUGGUGAAACCAUG [KL-XTryp-A24] |  |  |  |  |  | 126 | 98.9 | 106 | 105 | 185
15 | UUUUUUAGUUGAGUUAUACAUAGCGGACUAUAGGAUAUCUAGAAAUAGAGAAGGAUAAGAGUGAUGUUCUUAUUCAACUAUAGUG |  |  |  |  |  | 101 | 87.4 | 90.9 | 109 | 91.6
